Experimental data taken from doi:10.1101/2021.07.15.452465.

How the values were obtained:
[1] = target: A. nidulans CCAAT-binding complex, conserved core domains of HapB, HapC and HapE (HapB^231-293, HapC^42-132, HapE^47-164) (Aspergillus nidulans); experiment: crystal structure
[2] = target: A. nidulans HapX^36-133M carrying C92K and C129S point mutations (Aspergillus nidulans); experiment: crystal structure
[3] = target: A. nidulans CCAAT-binding complex, conserved core domains of HapB, HapC and HapE (HapB^231-293, HapC^42-132, HapE^47-164) (Aspergillus nidulans); experiment: SEC
[4] = target: A. nidulans CCAAT-binding complex, conserved core domains of HapB, HapC and HapE (HapB^231-293, HapC^42-132, HapE^47-164) (Aspergillus nidulans); experiment: SPR

fold increase of binding against HapX^36-133 [4] [fold] | Substance | stoichiometry N (HapX subunits per CBC) [1] | stoichiometry N [2] | stoichiometry N [3] [HapX per CBC]
 | A. nidulans HapX^36-133M carrying C92K and C129S point mutations (domain or fragment) | 2 | 2 | 2
< 3.6 | A. nidulans HapX^36-141 (domain or fragment) |  |  | 
